Data reported in paper PMC11032447 (2024).

T1: mouse secretagogin R198A (mouse, UniProt Q91WD9 1-276, R198A)
T1 sequence: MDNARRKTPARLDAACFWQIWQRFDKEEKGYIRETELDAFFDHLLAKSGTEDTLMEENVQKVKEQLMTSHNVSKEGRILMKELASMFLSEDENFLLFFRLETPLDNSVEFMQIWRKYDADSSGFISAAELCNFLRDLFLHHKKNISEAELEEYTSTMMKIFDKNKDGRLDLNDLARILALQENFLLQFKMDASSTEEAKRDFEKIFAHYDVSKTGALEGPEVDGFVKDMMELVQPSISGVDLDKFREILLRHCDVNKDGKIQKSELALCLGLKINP

T2: mouse secretagogin M229A (mouse, UniProt Q91WD9 1-276, M229A)
T2 sequence: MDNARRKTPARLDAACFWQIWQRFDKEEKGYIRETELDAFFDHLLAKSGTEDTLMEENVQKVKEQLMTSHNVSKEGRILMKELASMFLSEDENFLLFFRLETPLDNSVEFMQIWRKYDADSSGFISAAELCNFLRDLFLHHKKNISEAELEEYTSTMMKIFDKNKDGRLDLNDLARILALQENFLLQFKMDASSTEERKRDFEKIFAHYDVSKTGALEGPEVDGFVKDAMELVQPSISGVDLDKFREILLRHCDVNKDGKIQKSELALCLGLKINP

T3: mouse secretagogin M229E (mouse, UniProt Q91WD9 1-276, M229E)
T3 sequence: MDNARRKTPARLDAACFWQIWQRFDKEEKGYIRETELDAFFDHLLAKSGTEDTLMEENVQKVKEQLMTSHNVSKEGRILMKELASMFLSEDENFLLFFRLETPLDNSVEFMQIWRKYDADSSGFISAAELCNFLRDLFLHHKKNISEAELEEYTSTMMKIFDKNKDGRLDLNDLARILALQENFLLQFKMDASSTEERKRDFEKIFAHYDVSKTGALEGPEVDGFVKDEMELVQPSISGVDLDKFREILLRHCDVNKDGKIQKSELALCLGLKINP

T4: mouse secretagogin V233A (mouse, UniProt Q91WD9 1-276, V233A)
T4 sequence: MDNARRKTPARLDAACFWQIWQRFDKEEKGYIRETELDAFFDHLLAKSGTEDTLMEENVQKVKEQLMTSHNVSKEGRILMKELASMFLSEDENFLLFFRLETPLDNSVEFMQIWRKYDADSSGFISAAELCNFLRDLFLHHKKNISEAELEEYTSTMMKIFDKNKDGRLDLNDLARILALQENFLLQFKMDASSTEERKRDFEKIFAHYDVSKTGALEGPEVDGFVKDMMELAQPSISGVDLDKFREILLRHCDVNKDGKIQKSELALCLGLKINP

B1: helix-b of the Habc domain of mouse syntaxin-4 (domain or fragment)
chain: TPLPEESMKQGLQNLREEIKQLGREVRAQLKAIEPQKE

Legend:
Experiment in all cases: ITC
[1] = target: C-terminal SNARE domain of mouse SNAP-25 (mouse, UniProt P60879 140-206)
[2] = target: B1
[3] = target: T1, mouse secretagogin R198A
[4] = target: T2, mouse secretagogin M229A
[5] = target: T3, mouse secretagogin M229E
[6] = target: T4, mouse secretagogin V233A

Sequence of C-terminal SNARE domain of mouse SNAP-25 (P60879 140-206): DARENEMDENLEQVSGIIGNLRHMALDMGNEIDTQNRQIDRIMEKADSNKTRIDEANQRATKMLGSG

Kd [1] [nM]	Kd [2] [nM]	Kd [3] [nM]	Kd [4] [nM]	Kd [5] [µM]	Kd [6] [nM]	Binder
21.9	407	–	–	–	–	mouse secretagogin (natural protein) MDNARRKTPARLDAACFWQIWQRFDKEEKGYIRETELDAFFDHLLAKSGTEDTLMEENVQKVKEQLMTSHNVSKEGRILMKELASMFLSEDENFLLFFRLETPLDNSVEFMQIWRKYDADSSGFISAAELCNFLRDLFLHHKKNISEAELEEYTSTMMKIFDKNKDGRLDLNDLARILALQENFLLQFKMDASSTEERKRDFEKIFAHYDVSKTGALEGPEVDGFVKDMMELVQPSISGVDLDKFREILLRHCDVNKDGKIQKSELALCLGLKINP
–	–	808	1620	5.21	125	B1
